In assay [1] the target is T1, FcRn-L322A/L323A expressed in HEK293 cells (UniProt P55899 24-365). Briefly: cell FcRn occupancy, flow cytometry, free FcRn stained with anti-FcRn-Fab AF647, HEK293-FcRn-L322A/L323A cells, with HSA.
Assay [2] has as its target T1, FcRn-L322A/L323A expressed in HEK293 …. Briefly: cell FcRn occupancy, flow cytometry, free FcRn stained with anti-FcRn-Fab AF647, HEK293-FcRn-L322A/L323A cells, without HSA.
In assay [3] the target is T2, human serum albumin (human, UniProt P02768 25-609).
T2 construct: Immobilised on SPR chips; also added in solution to the cell assays; also called HSA; humanSA
Briefly: SPR Biacore 3000, HSA on chip, pH 5.5.

Assay [4] deals with T2, human serum albumin. Briefly: SPR Biacore 3000, HSA on chip, pH 7.4.
Assay [5] addresses T2, human serum albumin. Briefly: SPR Biacore 3000, HSA on chip, ratio of R0 at pH 5.5 to pH 7.4.
Assay [6] concerns the target T2, human serum albumin. Briefly: SPR, pH 5.5.
In assay [7] the target is T2, human serum albumin. Briefly: SPR, pH 7.4 and 5.5.
In assay [8] the target is T2, human serum albumin. Briefly: SPR, pH 7.4 (ka and kd N/A).
For assay [9], the target named is T2, human serum albumin. Briefly: SPR, Langmuir 1:1 or steady state model, pH 5.5.
Assay [10] concerns the target T2, human serum albumin. Briefly: SPR, Langmuir 1:1 or steady state model, pH 7.4 (ka and kd N/A).
Assay [11] deals with T3, neonatal Fc receptor (FcRn), endogenous in U937 cells (UniProt P55899 24-365; P61769 21-119).
T3 construct: whole, on cells; Free FcRn was stained inside fixed and permeabilised cells
T3 sequence (P55899 24-365 limits assumed, chain 1 of 2): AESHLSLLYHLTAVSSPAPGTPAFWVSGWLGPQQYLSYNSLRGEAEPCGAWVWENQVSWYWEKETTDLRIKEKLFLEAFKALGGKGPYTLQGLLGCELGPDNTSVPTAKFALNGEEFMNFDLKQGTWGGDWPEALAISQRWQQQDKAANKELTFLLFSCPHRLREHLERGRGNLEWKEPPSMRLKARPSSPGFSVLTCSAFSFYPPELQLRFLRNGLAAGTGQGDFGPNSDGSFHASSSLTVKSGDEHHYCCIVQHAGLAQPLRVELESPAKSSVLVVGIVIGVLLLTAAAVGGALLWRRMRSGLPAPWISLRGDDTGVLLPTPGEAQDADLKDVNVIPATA
T3 sequence (P61769 21-119 limits assumed, chain 2 of 2): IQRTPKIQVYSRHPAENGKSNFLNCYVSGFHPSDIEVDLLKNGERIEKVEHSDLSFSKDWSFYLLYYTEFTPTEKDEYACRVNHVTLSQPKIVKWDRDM
Put plainly: cell FcRn occupancy, flow cytometry, free FcRn stained with labelled anti-FcRn Fab, U937 cells, 2,500 nM HSA (SD 0.1).
Description: (§1) Next, FcRn occupancy was tested using a cell-based FcRn occupancy assay in the presence or absence of albumin. Briefly, test articles (Fc-ABDEG-VHH molecules) were pre-incubated with HSA for 30 minutes at 37° C., pH 7.4 in FACS buffer. Cells (HEK FcRn mut or U937) were plated in a 96-well microplate. Cells were incubated with test article for two hours, shaking at 37° C., pH 7.4 in FACS buffer. Plates were then transferred immediately on ice and cells were collected by centrifugation at 4° C. Cells stained for viability in FACS buffer at pH 6 and then fixed/permeabilized in permeabilization buffer at pH 6. […] Cells were analyzed by FACS, ensuring that they are kept on ice until immediately prior to analysis.

Assay [12] has as its target T2, human serum albumin. Briefly: SPR, pH 7.4.
In assay [13] the target is T2, human serum albumin. Briefly: SPR, pH 5.5; pH 5.5.
Assay [14] addresses T2, human serum albumin. Briefly: SPR, Langmuir 1:1 or steady state model, pH 7.4.
Assay [15] has as its target T3, neonatal Fc receptor (FcRn), endogenous …. Briefly: cell FcRn occupancy, flow cytometry, free FcRn stained with anti-FcRn-Fab AF647, U937 cells, with HSA.
Description: as §1
For assay [16] the target is unchanged. Put plainly: cell FcRn occupancy, flow cytometry, free FcRn stained with labelled anti-FcRn Fab, U937 cells, 2,500 nM HSA (SD 1.4).
Description: as §1
In assay [17] the target is T2, human serum albumin. Briefly: not stated there (refers to the earlier SPR).

Positions count from the first letter of the chain named. Names and notes keep the numbering of the source.

This is an account of results in patent US20250382388A1 (ARGENX, published 2025).

T1 sequence (P55899 24-365 L343A/L344A, chain 1 of 2): as the sequence (P55899 24-365 limits assumed, chain 1 of 2) above, with L320A, L321A counted along it
T1 sequence (chain, as listed by the source L322A L323A, chain 2 of 2): as the sequence (P61769 21-119 limits assumed, chain 2 of 2) above

B1: TA-Alb23-Fc-ABDEG (Fc fusion)
chain: EVQLLESGGGLVQPGGSLRLSCAASGFTFRSFGMSWVRQAPGKGPEWVSSISGSGSDTLYADSVKGRFTISRDNSKNTLYLQMNSLRPEDTAVYYCTIGGSLSRSSQGTLVTVSSDKTHTCPPCPAPELLGGPSVFLFPPKPKDTLYITREPEVTCVVVDVSHEDPEVKFNWYVDGVEVHNAKTKPREEQYNSTYRVVSVLTVLHQDWLNGKEYKCKVSNKALPAPIEKTISKAKGQPREPQVYTLPPSRDELTKNQVSLTCLVKGFYPSDIAVEWESNGQPENNYKTTPPVLDSDGSFFLYSKLTVDKSRWQQGNVFSCSVMHEALKFHYTQKSLSLSPG
notes: Alb23 VHH on the N-terminus of both Fc domains; also called two-armed N-terminal anti-HSA-Fc-ABDEG
On to B1, for which, in assay [1], the “% max occupancy” value came out at 43.4% and the midpoint of inhibition, the IC50, lay at 78.3 nM. In [2], this molecule registered an IC50 of 19.9 nM.

B2: TA-Fc-ABDEG-Alb23 (Fc fusion)
chain: DKTHTCPPCPAPELLGGPSVFLFPPKPKDTLYITREPEVTCVVVDVSHEDPEVKFNWYVDGVEVHNAKTKPREEQYNSTYRVVSVLTVLHQDWLNGKEYKCKVSNKALPAPIEKTISKAKGQPREPQVYTLPPSRDELTKNQVSLTCLVKGFYPSDIAVEWESNGQPENNYKTTPPVLDSDGSFFLYSKLTVDKSRWQQGNVFSCSVMHEALKFHYTQKSLSLSPGGGGGSGGGGSGGGGSGGGGSEVQLLESGGGLVQPGGSLRLSCAASGFTFRSFGMSWVRQAPGKGPEWVSSISGSGSDTLYADSVKGRFTISRDNSKNTLYLQMNSLRPEDTAVYYCTIGGSLSRSSQGTLVTVSS
notes: also called TA-ABDEG-Alb23
In the case of B2, in assay [1], the “% max occupancy” value was found to be 63.8% and the IC50 was determined as 33 nM. Besides, the IC50 in [2] is 20.2 nM.

B3: TA-Fc-ABDEG-2H11 (2H11 parental fused at the C-terminus of Fc-ABDEG) (Fc fusion)
chain: DKTHTCPPCPAPELLGGPSVFLFPPKPKDTLYITREPEVTCVVVDVSHEDPEVKFNWYVDGVEVHNAKTKPREEQYNSTYRVVSVLTVLHQDWLNGKEYKCKVSNKALPAPIEKTISKAKGQPREPQVYTLPPSRDELTKNQVSLTCLVKGFYPSDIAVEWESNGQPENNYKTTPPVLDSDGSFFLYSKLTVDKSRWQQGNVFSCSVMHEALKFHYTQKSLSLSPGGGGGSGGGGSGGGGSGGGGSELQVVESGGGLVQAGGSLRLSCAASGRTFRSNTMGWFRQAPGKEREFVAAITWSGGTTYYADSVKGRFAISGDNAKNTVYLQMNSLKPEDTAVYYCAAEGPKWEPWNGIYHPADFGSWGQGTQVTVSS
As for B3, in the assay with human serum albumin [3], the “R0 pH5.5” value amounted to 351 RU and the koff stood at 0.00016 s⁻¹. For the same molecule, in the assay with human serum albumin [4], the “R0 pH7.4” value is 115 RU and the koff is 0.00072 s⁻¹. In the assay with human serum albumin [5], the “R0 5.5/7.4” value is 3.

B4: TA-Fc-ABDEG-2H11-v12 (Fc fusion)
chain: B3 chain with Y356A
notes: Scaffold as for m24
As to B4, in the assay with human serum albumin [3], the “R0 pH5.5” value came to 93.9 RU and the koff worked out at 9.72e-05 s⁻¹. For the same molecule, in the assay with human serum albumin [4], the “R0 pH7.4” value is 6.32 RU and the koff came out at 0.0012 s⁻¹. The “R0 5.5/7.4” value with human serum albumin [5] was found to be 14.9.

B5: TA-Fc-ABDEG-2H11-v3 (Fc fusion)
chain: B3 chain with P347A
Regarding B5, in the assay with human serum albumin [3], the “R0 pH5.5” value was 164 RU and the koff was 0.000135 s⁻¹. Further, in the assay with human serum albumin [4], the “R0 pH7.4” value came out at 8.24 RU and the koff turned out to be 0.0029 s⁻¹. The “R0 5.5/7.4” value with human serum albumin [5] turned out to be 19.9.

B6: TA-Fc-ABDEG-2H11-v16 (Fc fusion)
chain: B3 chain with F361A
notes: Scaffold as for m24
Take B6: in the assay with human serum albumin [3], the “R0 pH5.5” value was determined as 8.91 RU and the koff turned out to be 0.00301 s⁻¹. Also, in the assay with human serum albumin [4], the “R0 pH7.4” value stood at 0.571 RU and the koff was 0.00193 s⁻¹. Further, the “R0 5.5/7.4” value in the assay with human serum albumin [5] amounted to 16.

B7: TA-Fc-ABDEG-2H11-v15 (Fc fusion)
chain: B3 chain with D360A
B7: in the assay with human serum albumin [3], the “R0 pH5.5” value was found to be 235 RU and the koff is 0.00174 s⁻¹. Besides, in the assay with human serum albumin [4], the “R0 pH7.4” value was 0.635 RU and the koff amounted to 0.0025 s⁻¹. In the assay with human serum albumin [5], the “R0 5.5/7.4” value was determined as 370.

B8: ABDEG-30GS-Alb23-SM (Fc fusion)
chain 1: DKTHTCPPCPAPELLGGPSVFLFPPKPKDTLYITREPEVTCVVVDVSHEDPEVKFNWYVDGVEVHNAKTKPREEQYNSTYRVVSVLTVLHQDWLNGKEYKCKVSNKALPAPIEKTISKAKGQPREPQVYTLPPSRDELTKNQVSLWCLVKGFYPSDIAVEWESNGQPENNYKTTPPVLDSDGSFFLYSKLTVDKSRWQQGNVFSCSVMHEALKFHYTQKSLSLSPGGGGGSGGGGSGGGGSGGGGSGGGGSGGGGSEVQLLESGGGLVQPGGSLRLSCAASGFTFRSAGMSWVRQAPGKGPEWVSSISGSGSDTLYADSVKGRFTISRDNSKNTLYLQMNSLRPEDTAVYYCTIGGSLSRSSQGTLVTVSS
chain 2: DKTHTCPPCPAPELLGGPSVFLFPPKPKDTLYITREPEVTCVVVDVSHEDPEVKFNWYVDGVEVHNAKTKPREEQYNSTYRVVSVLTVLHQDWLNGKEYKCKVSNKALPAPIEKTISKAKGQPREPQVYTLPPSRDELTKNQVSLSCAVKGFYPSDIAVEWESNGQPENNYKTTPPVLDSDGSFFLVSKLTVDKSRWQQGNVFSCSVMHEALKFHYTQKSLSLSPG
notes: also called OA-Fc-ABDEG-30GS-Alb23-F32A; OA-ABDEG-30GS-Alb23-SM
On to B8, for which the Kd with human serum albumin [6] stood at 20300 nM; with human serum albumin [8], 49000 nM; in the assay with human serum albumin [9] it was 20300 nM; in the assay with human serum albumin [10], 49000 nM. For the same molecule, the koff with human serum albumin [6] and with human serum albumin [9] was 0.351 s⁻¹ in each case. The kon with human serum albumin [6] and with human serum albumin [9] was 17300 M⁻¹ s⁻¹ each time. Besides, the “fold decrease in affinity against OA-Fc-ABDEG-Alb23” value in the assay with human serum albumin [7] was above 300 fold. This molecule returned an IC50 in [11] of 2.1 nM.

B9: OA-Fc-ABDEG-Alb23 (Fc fusion)
chain 1: B2 chain with T146W
chain 2: B8 chain 2
notes: also called OA-Fc-ABDEG-20GS-Alb23; ABDEG-20GS-Alb23
For the molecule B9, the Kd in the assay with human serum albumin [6] stood at 66.5 nM; in the assay with human serum albumin [12] it was 147 nM; with human serum albumin [9], 66.5 nM; with human serum albumin [14], 147 nM. Moreover, the koff with human serum albumin [6] turned out to be 0.00186 s⁻¹; with human serum albumin [12], 0.00336 s⁻¹; in the assay with human serum albumin [9] it was 0.00186 s⁻¹; in the assay with human serum albumin [14], 0.00336 s⁻¹. Also, the kon was determined as 22900 M⁻¹ s⁻¹ with human serum albumin [12], 27900 M⁻¹ s⁻¹ with human serum albumin [13], 27900 M⁻¹ s⁻¹ with human serum albumin [9] and 22900 M⁻¹ s⁻¹ with human serum albumin [14]. Moreover, the “% max occupancy” value in assay [1] came out at 67.9%. Moreover, the IC50 in [1] was determined as 11.5 nM; in [2], 6.4 nM.

B10: efgartigimod (human IgG1 Fc fragment with ABDEG mutations) (other)
chain: B8 chain 2 with S146T, A148L, V187Y
notes: residues 1-226 (my count) are the Fc part; also called ARGX-113; efgartigimod alfa
In the case of B10, the “% max occupancy” value in assay [15] was 56.8%; in [1] it was 57.7%. Further, the IC50 in assay [15] came out at 4.8 nM; in [16], 2.9 nM; in assay [1] it was 16.1 nM; in assay [2] it was 6.8 nM.

B11: Alb23 F32A VHH fragment (VHH)
VHH: EVQLLESGGGLVQPGGSLRLSCAASGFTFRSAGMSWVRQAPGKGPEWVSSISGSGSDTLYADSVKGRFTISRDNSKNTLYLQMNSLRPEDTAVYYCTIGGSLSRSSQGTLVTVSS
notes: also called Alb23-SM
Take B11: the “fold lower affinity against parental Alb23 VHH” value in the assay with human serum albumin [17] was around 300 fold.
